Reference: the nanobody polyreactivity screen of Harvey et al. (2022)

Experiment: yeast display, Sf9 membrane polyspecificity reagent, FACS + sequencing; frameworks hold sequencing errors
In short: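 A nanobody's polyreactivity label depends on the gate it was sorted from. Yeast display cells were stained with 10% biotinylated, detergent-solubilized Sf9 membrane reagent for 1 hour at 4 °C, enriched on streptavidin microbeads and sorted by FACS. The low and high (top ~1%) gates were set on anti-HA fluorescence for expression and streptavidin fluorescence for reagent binding.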

Sequence | polyreactivity (PSR sort gate)
QDQLVESGGGLVQAGGSLRLSCAASGSIFAGNVMGWYRQAPGKERELVAAISRRGGRTYYADSVKGRFTISRDNAKNTVYLQMNSLKPEDTAVYYCAARRDPVLGKSDYWGQGTLVTVSS | high polyreactivity
QVHLVESGGGLVQAGGSLRLSCAASGYRNAMGWYRQAPGKERELVAAISSGGSTYADSVKGRFTISRDNAKNTVYLQMNSLKPEDTAVYYCAAGPVPTYDYGNFDYWGQGTQVTVSS | low polyreactivity
QVQLVESGGGLVQAGGSLRLSCAASGRIITINAMGWYRQAPGKERELVAAITGSAASTYYADSVKGRFTISRDNAKNTVYLQMNILKPEDTAVYYCAVDRRPYSGHGYDYWGQGTQVTVSS | high polyreactivity
QVQLVESGGGLVQAGGSLRLSCAASGSTFASNAMGWYRQAPGKERELVAAITSRDASTYYADSVKGRFTISRDNAKNTVYLQMNSLKPEDTAVYYCATDGYSPAAFDYWGQGTQVTVSS | low polyreactivity
QVQLVESGGGLVQAGGSLSLSCAASGRIFYGYVMVWYRQAPGKERELVAAITWSGSRTYYADSVKGRFTISRDNAKNTVFLQMNSLKPADTAVYYCAARIPSDGYYYWGQGTQVTVSS | high polyreactivity
QVQLVESGGCLVQAGGSLRLSCAASGSTFPIYAMGWYRQAPGKERELVARITWNGGRTYYADSVKGRFTISRDNAKNTVYLQMNSLKPEDTAVYYCAAGKIGSYHYDYWGQGTQVTVSS | high polyreactivity
QVQLVESGGGLVQAGGSLRLSCAASGSIFPYYTMGWYRQAPGKERELVATITTGGSTNYADSVKGRFTISRDNAENTVYLQMNCLKPEDIAVYYCNKDGVVEVRFTGRQEYDYWGQGTQVTVSS | low polyreactivity
QVQLVESGGGLVQAGGSLRLSCAASGRTFRRNAMGWYRQAPGKERELVATISSSGGRTYYADSVKGRFTISRDNAKKTVYFQMNSLKPEDTAVYYCNKALRTYPLFYYWGQGTQVTVSS | high polyreactivity
QVQLVESGGGFVHAGGSLRLSCAASGLIFGKYAMGWYRQAPGKERELVAAITSSGGGTYYADSVKGRFTISRDNAKNTVSLQMNSVKADDTAVYYCATGPDPKYDYRGQGTQVTVSS | high polyreactivity
QVQLVESGGGLVQAGGSLRLSCAAYGFIFIGYTMGWYRQAPGKERELVATISLGDDSTYYADSVKGRFTISRDNAKNTVYLQMNSLKPEDTAVYYCAADQIDGTTSAYDYWGQGTQVTVSS | low polyreactivity
QVQLVESGRGLVQAGGSLPLSCAASGFIFRRYAMVWYRQAPGKERELVAGISRGGDSTYYADSVKGRFTISRDNAKNTVYLQMNSLKPEDTAVYFCAGQGRDSTPHGYWGQGTQVTVSS | high polyreactivity
QVQLVESGGGLVQAGGSLRLSCAASGSIFTGYTMGWYRPAPGKEREFVAAIRATGGSTYYADSVKGRFTISRDNAKNTVYLQMNSLKPEDTAVYYCAVRSGVGSVRKRYGYWGQGTQVTVSS | high polyreactivity
QVQLVESGGGLVQAGGSLRLSCAASGFIFRYYAMGWYRQAPGKERELVAAISWSGGSTYYADSVKGRFTISRDNAKNTVYLQMNSLKPEDTAVYYCNARYKYLFTVSRYDYWGQGTQVTVSS | high polyreactivity
QVQLVESGGGLVQAGGSLRLSCAASGSTLYYNAMGWYRKAPGKERELVADITSGGSTSYADSVKGRFTISRDNAKNTVYLQMNSLKPEDTAVYYCAAVFYRRFDYWGQGTQVTVSS | low polyreactivity
QVQLVESGGGLVQAGGSLRLSCDASGRTCFKYAMGWYRQAPGKERELVATITSSGGITYADSVKGRFTISRDNAKNTVYLQMNSLKPEDTAVYYCNARVWVTHYSELNYWGQGTQVTVSS | low polyreactivity
QVQLVESGGGLVQAGGSLRLSCAASGFTFGFYAMGRYRQAPGKERELVARISYSGGSTYYADSVKGRFTISRDKAKNTVYLQMNSLKPEDTAVYYCNRGYRRLQEDYWGQGTQVTVSS | high polyreactivity
QVQLVESGGGLVQAGGSLRLSCAASGRIFREYAMGWYRQAPGKERELVAAISSGASTYADSVKGRFTISRDNAKNTVYLQMNSLKPEDTAVYYCAKDIKLGPVGHSKYHRYDYWGQGTQVTVSS | low polyreactivity
QVQLVESGGGLVQAGGSLRLSCAASGSTFAPNAMGWYRQAPGKERELVAAISSGGDSTNYADYVKGRFTISRDNAKNTVYLQMNSLKPEDTAVYYCAHGYCFVAYDYWGQGTQVTVSS | low polyreactivity
QDQLVDSGGGLVQAGGSLRLICAASGRTYRKYAMGWYRQAPGKERELVADISWSGGSTYYANSVKGRFTISRDIAKNTVYLQMNSLKPEDTAVYYCAAVPVHTGSLYWGFTTGYDYWGQGTQVTVSS | low polyreactivity
QVQLVESGGGLAQAGGSLRLSCAASGNIFRINGMGWYRQAPGKERELVASITRSGSTYYADSVKGRFTISRDNAKNTVYLQMNSLKPEDTAVYFCAADSRRYGVRFDYWGQGTQVTVSS | low polyreactivity
QVQLVESGGGLVQAGGSLRLSCAASGRTFNYNAMGCYRQAPGKERELVAAITSGGRTNYADSVKGRFTISRDNAKNTVYLQMNSLKPEDTAVYYCATEYYRYRWVGAFRYPVYYWGQGTQVTVSS | low polyreactivity
QVQLVESGGGLVQAGGSLRLICAASGSIFGINAMGWYRQAPGKERELVAAITWSGTSTYYADSVKGRFTISRDNAKNTDYLQMNSMKPEDTAVYYCAARVGRGYRTYGYWGQGTQVTVSS | high polyreactivity

Sequence | polyreactivity (PSR sort gate)
QVQLVESGGGLVQAGGSRRLSCAASGFFFDVNAMGWYRQAPGTEREWVATISKRGGTTYYADSVKGRFTISRDNAKNTVYLQMNSLKQEDTAVYYCAARHQSLRSYRYDYWGQGTQVTVSS | low polyreactivity
QVQLVESGGGLVQAGGSLRLSCAASGSTFQRYAKGWYRQAPGKEWELVAGITGSVGRTYYADSVKGRFTISRDNAKNTVDLQMNSLKPQATAVSYCAADGRTWLYYGTRRDYWGQGTQVTVSS | high polyreactivity
QVQLVESGGGLVQAGGSLRLSCAASGFIFGIYAMGWYRQAPGNEWEFVAAITGSAGSTYYADSVKGRFTISRDNAKNTVYLQMNSLKPEDTAVYYCATDVLPRKYDSDYPSGAYDYWGQGTQVTVSS | low polyreactivity
QVQLVQSGGGLVQAGGSLRLSCAASGRTIYSKAMGWYRQAPGKERELVAAITSTDDSTYYADSVKGRFTISRDNAKNTVYLQMNSLKPEDTAVYYCNTDGLIAIRGLWWVEYDYWGQGTQVTVSS | low polyreactivity
QVQLVESGGGLVQAGGSLRLSCAASGSTYTRYAMGLYRQAPGKEMELVATINVSGDRTYYADSVKGRFTISRDNAKNTVYLQMNSLKPEDTAVYYCNKYRYQWPYRRFDYWGQGTQVTVSS | high polyreactivity
QVQLVESGGGLVQAGGSLRLSCAASGITFSRYAMGWYRQAPGKERELVATITFSGTSTFYADSVKGRFTISRDNAKNRFYLQMNSLKPEDTAVYYCARLRFGSWSTYYYWGQGTQVTVSS | low polyreactivity
QVQLVESGGGLVQAGGSLRLSCAASGSIFPGYAMGWYRQAPGKERELVATITYSDGSTYYADSVKGRFTISRDNAKNTVSLQMNSLKPEDTAVYYCNAASRGAGTSIWSWYDHWGQGTQVTVSS | low polyreactivity
QVQLVETGGGLVQAGGSLRLSCAASGRTFWYYAMGWYRQAPVTERELVAYADSVKGRFTISRDNAKNTVYLQMNSLKPEDTAVYYCAVGPVVWFSSSLYYTDYYYWGQGTEVTVSS | low polyreactivity
HVQLVESGGGIVQAGGSLRLSSAASGSTFGSNAMGWYRQAPGKERELVAAITYSGGRTYYADSVKGRFTISRDNAKNTVYLQMNSLKPEDTAVYYCAATFGFFYYQYDYWGQGTQVTVSS | low polyreactivity
QVQLVESGGGLVQAGGSLRLSCAASGFIFRRYAMGWYRQAPGKERELVASISWSGGSTYYADSVKGRFTISRDNAKNTVYLQMNSLKPEDTAVYYCAKGGYYSRYYSYGYWGQGTQVTVSS | high polyreactivity
QVQLVESGGGLVQAGGSLRLSCAASGRTFYVNAMGWYRQAPGKERELVATITDRGGRTYYADSVKGRFTISRDNAKNTVYLQMNSLKPEDTAVYYCAATRWYEVDYWGQGTQVTVSS | low polyreactivity
QVQLVESGGGLVQAGGSLRLSCAASGRIFYNYAMGWYRQAPGKERELVAAITGGASTYADSVKGRFTISRDNAKNTVYLQMNRLKPEDTAVYYCAVDYYTYSLASGRTRMDYWGQGTQVTVSS | high polyreactivity
QVQLVESGGGLVQAGGSLRLSCAASGSTFSVYAMGWYRQAPGKERELVATISWGGGITYYADSVKGRFTISRDNAKNTVYLQMNSLKPEDTAVYYCAAYARYPRYYYWGQGTQVTVSS | high polyreactivity
QVQLVESGGGLVQAGGSLRLSCAASGSTFGRNTMGWYRQAPGKERELVAAITSGDTTTYADSVKGRFTISRDNAKNTVYLQMNSLKPEDTAVYYCAVDPVRGRDYSWMDYWGQGTQVTVSS | low polyreactivity
QVQLVESGGGLVQAGGSLRLSCAASGSTFVSYAMGWYRQAPGKERELVAAIRTTSGSTYYADSVKGRFTISRDNAKNTVYLQMNSLKPEDTAVYYCAAAGRGPSFRRYDYWGQGTQVTVSS | high polyreactivity
QDQLVESGGGLVQAGGSLRLSCAASGFTFRYYAMGWYRQAPGKEREFVAAITQSGGSTYYADSVKGRFTISRDNAKNTVYLQMNSLKPEDTAVYYCNTARVKYRWYNYWGQGTQVTVSS | high polyreactivity
QVQLVESGGGLVQAGGSLRLSCAASGSTFYHYAMGWYRKAPGKERELVAAISTSGGRTYYADSVKGRFTISRDNAKNTVYLQLNSLKPEDTAVYYCAARPGSWFPSVPSYNYWGQGTQVTVSS | low polyreactivity
KVQVVESGGGLVQAGGSLRLSCAASGSTFYYNAMGWYTQAPGKERELVAAITGSGTGTNYADSVKGRFTISRDNAKNTVYLQMNSLKPEDTAVYYCAADYVWRGDPINSYLSWYVYWGQGTQVTVSS | low polyreactivity
QVQLVESGGGLVQAGGSLRISSAASGIIFPWYYMGWYRQAPGKESELVAGITDGGDTTYADSVKWRFTISRDYAMNNVYLEMNRLKPEDTAVYYCAADIGYGYWHFDYLGQGTQVTVSS | low polyreactivity
QVQLVESGGGLVQAGGSLRLSCAASGSTFSGNAMGWYRQAPGKEWELGATITITGGSTYYADSVKGRFTISRDNAKNTVYLQMNSLKPEDTAVYYCAKDYYAYSDYDYWGQGTQVTVSS | low polyreactivity
QVQLVESGGGLVQAGGSLRLSCAASGRISSGYAMGWYRQAPGKERELVAAISSIGGRTYYADSVKGRFTISRDNAKNTVYLQMNSLKPEDTAVYYCNTYPYIQRTWWYDYWGQGTQVTVSS | high polyreactivity
